Each block holds one binder with its values, some of them ahead of it.
What was measured:
CD47 on Jurkat cells [1] = molecular target: T1, CD47 on Jurkat cells (UniProt Q08722 19-323, limits assumed); test: flow cytometry on Jurkat cells, FITC anti-human IgG-Fc
T1 construct: whole, on cells; also called CD47-expressing Raji cells
Experimental: (§1) Cells were washed with cold PBS twice, and then incubated with FITC-conjugated secondary antibody against human IgG-Fc (Cat #F9512, Sigma) for 45 min. Cells were washed twice and re-suspended in […] PBS. Then, the cells were subject to FACS analysis using a flow cytometer (Merck Millipore, Guava® easyCyte 5HT).

[2] = molecular target: T2, PD-L1 on CHO cells expressing human PD-L1 (CHO-PDL1) (human, UniProt Q9NZQ7 19-290); test: flow cytometry competition; blocks Biotin-hPD1-mFc (1 µg/ml) on CD47- PD-L1+ CHO cells
T2 construct: whole, on cells; Species is stated as human for the CHO-PDL1 cells; also called CHO-PD-L1 cells; Raji-PD-L1 cells
T2 sequence (Q9NZQ7 19-290): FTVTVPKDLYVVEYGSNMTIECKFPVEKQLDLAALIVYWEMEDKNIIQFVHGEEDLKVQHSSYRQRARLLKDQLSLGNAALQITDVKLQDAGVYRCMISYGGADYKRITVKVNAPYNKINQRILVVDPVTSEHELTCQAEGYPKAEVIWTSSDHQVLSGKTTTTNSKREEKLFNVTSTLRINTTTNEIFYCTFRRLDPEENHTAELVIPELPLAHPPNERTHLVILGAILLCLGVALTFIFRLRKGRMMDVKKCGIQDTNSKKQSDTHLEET
Experimental: Cells were incubated at 4° C. for 45 minutes, washed with PBS, and then further incubated at 4° C. for another 45 minutes with PE-conjugated mouse Anti-human CD279 (Cat #557946, BD BioScience).

CD47 on Jurkat cells [3] = molecular target: T1, CD47 on Jurkat cells; test: flow cytometry competition; blocks FITC-SIRPα-Fc (80 nM) on PD-L1- CD47+ Raji cells
Experimental: The mixtures were added to a 96-well plate containing PD-L1⁻ or PD-L1⁺ CD47-expressing Raji cells, and the plate was incubated at 4° C. for 45 minutes.

[4] = molecular target: T2, PD-L1 on CHO cells expressing human …; test: flow cytometry on CHO-PD-L1 cells, FITC anti-human IgG-Fc
Experimental: as §1

EC50 (CD47 on Jurkat cells [1]): 0.7 nM | IC50 [2]: < 1 nM | IC50 (CD47 on Jurkat cells [3]): 140 nM | EC50 [4]: 0.11 nM
B1: IMM2521 (bispecific antibody, human IgG1, kappa)
heavy: QVQLVQSGAEVKKPGASVKVSCKASGYTFTSNWMHWVRQAPGQGLEWMGMIHPNSGSSNYNEKFKSRVTMTRDTSTSTVYMELSSLRSEDTAVYYCARSYYGSSPYYFDYWGQGTLVTVSSASTKGPSVFPLAPSSKSTSGGTAALGCLVKDYFPEPVTVSWNSGALTSGVHTFPAVLQSSGLYSLSSVVTVPSSSLGTQTYICNVNHKPSNTKVDKRVEPKSCDKTHTCPPCPAPELLGGPSVFLFPPKPKDTLMISRTPEVTCVVVDVSHEDPEVKFNWYVDGVEVHNAKTKPREEQYNATYRVVSVLTVLHQDWLNGKEYKCKVSNKALPAPIAATISKAKGQPREPQVYTLPPSREEMTKNQVSLTCLVKGFYPSDIAVEWESNGQPENNYKTTPPVLDSDGSFFLYSKLTVDKSRWQQGNVFSCSVMHEALHNHYTQKSLSLSPGK
light: not shown
notes: SIRPαD1 mutant linked through the linker to the N-terminus of each light chain of IMM2515; also called recombinant fusion protein IMM2521; PD-L1×CD47 bispecific

IC50 [2]: < 1 nM
B2: IMM2515 (antibody, human IgG1, kappa, V domains shown)
VH: QVQLVQSGAEVKKPGASVKVSCKASGYTFTSNWMHWVRQAPGQGLEWMGMIHPNSGSSNYNEKFKSRVTMTRDTSTSTVYMELSSLRSEDTAVYYCARSYYGSSPYYFDYWGQGTLVTVSS
VL: DIQMTQSPSSLSASVGDRVTITCRASQDIINYLNWYQQKPGKAPKLLIYYTSRLHSGVPSRFSGSGSGTDFTFTISSLQPEDIATYYCQQGDTLPWTFGQGTKVEIKR
notes: also called monoclonal anti-PD-L1 antibody; monospecific anti-PD-L1 antibody IMM2515

Source: patent US20230083670A1 (IMMUNEONCO BIOPHARMACEUTICALS SHANGHAI, published 2023)
